Reference: patent US20250340654A1 (INTERVET, published 2025)
Residue numbers refer to the chain shown, from its start.

B1: 209G5 (antibody, V domains shown)
VH: EVQLQQSVAELVRPGASVKLSCTASGFNIKNTYMHWVKERPEQGLEWIGRIDPANGNSKYAPKFQGKATITTDTSSNTAYLQLSSLTSEDTAIYYCARYYYVSSHFDVWGTGTTVTVSS
VL: SIVMTQTPKFLLVSAGDRVTITCKASQSVTNDVTWYQQKPGQSPKLLIYYASNRYTGVPDRFTGSGYGTDFTFTISTVQAEDLAVYFCQQDYSSPFTFGSGTKLEIK
notes: Mouse monoclonal antibody from a hybridoma; also called mouse mAb 209G5
B2: 224G3 (antibody, V domains shown)
VH: EVQLVESGGDLVKPGGSLKLSCAASGFTFSSYGMSWVRQTPDKRLEWVATISNGGSYTYYPDSVKGRFTISRDNAKNTLYMQMSSLKSEDTAMYYCARNEPPDYWGQGTSVTVSS
VL: QIVLTQSPAIMSASLGERVTMTCTASSSVGSSYLHWYQQKPGSSPKLWIYDTSNLASGVPVRFSGSGSGTSYSLTISSMEAEDAATYYCHQYHRSPYTFGGGTKLEIK
notes: Mouse monoclonal antibody from a hybridoma; also called mouse mAb 224G3
B3: Chimeric 218D9 (antibody, V domains shown)
VH: QVTLKESGPGILQPSQTLSLTCSFSGFSLSTFGRGVGWIRQPSGKGLDWLTHIWWDDDKYYNPALKSRLTISKDTSKNQVFLKIANVDTADTATYYCARIAGGLRRAPYAMDSWGQGTSVTVSS
VL: DIQMTQSPASLSVSVGETVTITCRASENIYSSLAWYQQKQGKSPQLLVYAATNLADGVPSRFSGSGSGTQYSLKINSLQSEDSGNYYCQHFRDTPPTFGGGTKLEIK
notes: canine constant regions not specified; also called mouse-canine chimeric 218D9 antibody
B4: 218D9 (antibody, V domains shown)
VH: B3 VH
VL: B3 VL
notes: Mouse monoclonal antibody from a hybridoma; also called mouse mAb 218D9
B5: c218D9VH3VL2 (antibody, V domains shown)
VH: EVTLQESGPGLVKPSQTLSLTCSFSGFSLSTFGRGVGWIRQRPGRGLEWMGHIWWDDDKYYNPALKSRLSITKDTAKNQFSLQLSSMTTEDTAVYYCARIAGGLRRAPYAMDSWGQGTLVTVSS
VL: DIVMTQTPLSLSVSPGETASISCRASENIYSSLAWFRQKPGQSPQLLIYAATNLADGVPDRFSGSGSGTDFTLRISRVEADDTGVYYCQHFRDTPPTFGQGTKLEIKR
notes: Caninized antibody; chains tied by name to c218D9VH3-cIgGBm and c218D9VL2-cCK; also called c218D9VH3L2
B6: c218D9VH3VL3 (antibody, V domains shown)
VH: B5 VH
VL: B5 VL with I48V, F71Y
notes: Caninized antibody; chains tied by name to c218D9VH3-cIgGBm and c218D9VL3-cCK; also called c218D9VH3L3
B7: c218D9VH4VL2 (antibody, V domains shown)
VH: B5 VH with F80V, S81F
VL: B5 VL
notes: Caninized antibody; chains tied by name to c218D9VH4-cIgGBm and c218D9VL2-cCK; also called c218D9VH4L2
B8: c218D9VH4VL3 (antibody, V domains shown)
VH: B5 VH with F80V, S81F
VL: B5 VL with I48V, F71Y
notes: Caninized antibody; chains tied by name to c218D9VH4-cIgGBm and c218D9VL3-cCK; also called c218D9VH4L3
B9: c51F8VH4VL7 (antibody, V domains shown)
VH: EVQLVQSGAEVVKPGASVKVSCTASGFNIKNTFIHWVRQRPGAGLDWIGRIDPANGNTKYAPKFQGRATLTADTSTNTAYMQLSSLRAGDIAVYYCARYYYVSSYFDVWGTGTLVTVSS
VL: DIVMTQTPLSLSVSPGETASISCKASQSVTNDVTWFRQKPGQSPKLLIYSASNRYTGVPDRFSGSGSGTDFTLRISTVEADDTGVYYCQQDYSSPWTFGQGTKLEIKR
notes: Caninized antibody; chains tied by name to c51F8VH4-cIgGBm and c51F8VL7-cCK; also called c51F8VH4L7
B10: 85C10 (antibody, V domains shown)
VH: EFQLQQSGPELVKPGASVKISCKASGYSFTDYSINWVKQSNGKSLEWIGVINPNYGTSSHNQKFKGKATMTVDQSSSTAYMQLNSLTSEDSAVYYCARALDDYYFYWYFDVWGIGTTVTVSS
VL: DVVMTQTPLSLPVSLGDQASISCRSSQSLVHTNGNTYLHWYLQKPGQSPKLLIYKVSNRFSGVPDRFSGSGSGTDFTLKISRVEAEDLGVYFCSQTTHVPLTFGAGTKLELK
notes: Mouse monoclonal antibody from a hybridoma; also called mouse mAb 85C10

How the values were obtained:
Canine IL-31RA ECD-10His [1] = target: T1, Canine IL-31RA ECD-10His (canine, biotin-labeled in the Octet assay (site not stated)); assay: BLI (Octet HTX), biotin-labeled canine IL-31RA on SA biosensors, 1:1 fit
T1 construct: The ELISA and Octet protocols say only 'IL-31RA' or 'canine IL-31RA'; also called cIL-31RA; canine IL-31 receptor alpha extracellular domain, HIS-tagged
T1 chain: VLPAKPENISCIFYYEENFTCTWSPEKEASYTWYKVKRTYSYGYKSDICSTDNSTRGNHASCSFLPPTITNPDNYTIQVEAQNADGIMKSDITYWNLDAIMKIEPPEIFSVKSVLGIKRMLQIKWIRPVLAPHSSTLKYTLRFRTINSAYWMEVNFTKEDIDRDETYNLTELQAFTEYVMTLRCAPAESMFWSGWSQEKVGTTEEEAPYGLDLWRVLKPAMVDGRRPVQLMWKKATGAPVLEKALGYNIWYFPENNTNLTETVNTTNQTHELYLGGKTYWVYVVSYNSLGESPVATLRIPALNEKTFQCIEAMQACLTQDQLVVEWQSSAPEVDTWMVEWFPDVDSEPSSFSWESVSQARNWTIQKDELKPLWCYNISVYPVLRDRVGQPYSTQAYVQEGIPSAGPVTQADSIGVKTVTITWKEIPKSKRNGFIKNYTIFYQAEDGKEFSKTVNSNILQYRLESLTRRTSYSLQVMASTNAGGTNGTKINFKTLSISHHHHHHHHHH
Protocol: These constants reflect the binding affinity of the individual monoclonal antibodies for canine IL-31 RA.
(§1) All kinetics measurements were performed by Octet HTX using SA biosensors and Data Acquisition 12.0 software. A biotin-labeled antigen (canine IL-31RA) was loaded onto the pre-rehydrated SA biosensors for 120s at a concentration of 1 μg/mL. Next, the biosensors were placed into Octet Kinetics Buffer (PBS+0.02% Tween 20, 0.1% BSA) for the blocking phase for 120s. Then, for the association phase, antigen loaded biosensors were placed into 2-fold serial dilutions from 100 nM down to 3.13 nM of anti-IL-31RA monoclonal antibody in Octet Kinetics Buffer for 300s. The last well was buffer alone and that sensor was used for reference sensor subtraction. Finally, the biosensors were placed into Octet Kinetics Buffer for the dissociation phase for 300s. Analysis was performed using Data Analysis 12.0 software and curves were fitted using a 1:1 binding model.

[2] = target: T2, canine IL-31 receptor complex (IL-31RA and OSMR) on Ba/f3-OI cells (canine); assay: cell-based or functional assay
Canine IL-31RA ECD-10His [3] = target: T1, Canine IL-31RA ECD-10His; assay: BLI (Octet); end of the range tied to 224G3 by Table 2
Protocol: as §1

Canine IL-31RA ECD-10His [4] = target: T1, Canine IL-31RA ECD-10His; assay: ELISA on coated canine IL-31RA, anti-canine IgG Fc-HRP (Example 11), the unit is that of the x axis 'Ab Log Conc. (ng/mL)'
Protocol: 1. Coat 200 ng/well of IL-31RA on an immunoplate and incubate the plate at 4° C. overnight. [0257] 2. Wash the plate 3 times with phosphate buffered saline (PBS) containing 0.05% Tween 20 (PBST). […] 3. Block the plate with 0.5% bovine serum albumin (BSA) in PBS for 45-60 min at room temperature. [0259] 4. Wash the plate 3 times with PBST. [0260] 5. Three-fold dilute the caninized antibody in each column or row of dilution plate starting at 0.3 μg/mL. [0261] 6. Transfer the diluted caninized antibody into each column or row of the immunoplate, and incubate the plate for 45-60 min at room temperature. [0262] 7. Wash the plate 3 times with PBST. [0263] 8. Add 1:4000 diluted horseradish peroxidase labeled anti-canine IgG Fc into each well of the plate, and then incubate the plate for 45-60 min at room temperature. [0264] 9. Wash the plate 3 times with PBST. [0265] 10. Add 3,3′,5,5′-tetramethylbenzidine (TMB) Substrate into each well of the plate, and incubate the plate for 10 to 15 min at room temperature to develop the color. [0266] 11. Add 100 μL 1.5 M phosphoric acid into each well to stop the reaction. Read plate at 450 nm with 540 nm reference wavelength.
As depicted in FIGS. 7A-7E, the caninized antibodies were tested for their reactivity to canine IL-31RA.

[5] = target: T2, canine IL-31 receptor complex (IL-31RA …); assay: cell-based or functional assay; remark: listed apart in the source
Canine IL-31RA ECD-10His [6] = target: T1, Canine IL-31RA ECD-10His; assay: BLI (Octet), biotin-labeled canine IL-31RA on SA biosensors
Protocol: as §1
Two of the top blocking antibodies: 51F8 and 218D9, had KDs of about 0.2 nM and about 0.07 nM respectively (see, Table 5B below).

[7] = target: T2, canine IL-31 receptor complex (IL-31RA …); assay: cell-based or functional assay; remark: listed apart in the source
Canine IL-31RA ECD-10His [8] = target: T1, Canine IL-31RA ECD-10His; assay: BLI (Octet); end of the range tied to 85C10 by Table 2
Protocol: as §1

Binder	Kd (Canine IL-31RA ECD-10His [1]) [nM]	koff (Canine IL-31RA ECD-10His [1]) [s⁻¹]	kon (Canine IL-31RA ECD-10His [1]) [M⁻¹ s⁻¹]	IC50 (read off the curve): inhibition of IL-31 mediated STAT-3 phosphorylation in Ba/f3-OI cells [2] [ng/mL]	Kd (Canine IL-31RA ECD-10His [3]) [nM]	EC50 (Canine IL-31RA ECD-10His [4]) [ng/mL]	IC50: inhibition of IL-31 mediated STAT-3 phosphorylation in Ba/f3-OI cells (AlphaLISA p-STAT3), the unit is that of the x axis 'Antibody Log Conc. (nM)' [5] [nM]	Kd (Canine IL-31RA ECD-10His [6]) [nM]	koff (Canine IL-31RA ECD-10His [6]) [s⁻¹]	kon (Canine IL-31RA ECD-10His [6]) [M⁻¹ s⁻¹]	IC50, inhibition of IL-31 mediated STAT-3 phosphorylation in Ba/f3-OI cells [7] [nM]	Kd (Canine IL-31RA ECD-10His [8]) [nM]
B1	0.131	4.87e-05	370000	~2000	–	–	–	–	–	–	–	–
B2	0.000964	1.08e-06	1.12e+06	–	0.001	–	–	–	–	–	–	–
B3	–	–	–	–	–	3.15	2.24	0.0698	4.63e-05	664000	~2.2	–
B4	0.0698	4.63e-05	664000	~2000	–	–	–	–	–	–	–	–
B5	–	–	–	–	–	4.29	226	0.528	0.000338	641000	~230	–
B6	–	–	–	–	–	3.22	2.97	0.0416	2.75e-05	661000	~2.5	–
B7	–	–	–	–	–	4.1	8.27	0.305	0.000165	541000	~8.3	–
B8	–	–	–	–	–	3.58	2.5	0.0447	2.69e-05	601000	~2.9	–
B9	–	–	–	–	–	11.3	–	1.23	0.000512	416000	–	–
B10	0.851	0.000363	427000	–	–	–	–	–	–	–	–	0.85
